B1: Siglec-3 (receptor, UniProt P20138 18-259, looked up)
chain: DPNFWLQVQESVTVQEGLCVLVPCTFFHPIPYYDKNSPVHGYWFREGAIISRDSPVATNKLDQEVQEETQGRFRLLGDPSRNNCSLSIVDARRRDNGSYFFRMERGSTKYSYKSPQLSVHVTDLTHRPKILIPGTLEPGHSKNLTCSVSWACEQGTPPIFSWLSAAPTSLGPRTTHSSVLIITPRPQDHGTNLTCQVKFAGAGVTTERTIQLNVTYVPQNPTTGIFPGDGSGKQETRAGVVH
B2: dectin-1 (receptor, UniProt Q9BXN2-2 66-201, looked up)
chain: TMGVLSSPCPPNWIIYEKSCYLFSMSLNSWDGSKRQCWQLGSNLLKIDSSNELGFIVKQVSSQPDNSFWIGLSRPQTEVPWLWEDGSTFSSNLFQIRTTATQENPSPNCVWIHVSVIYDQLCSVPSYSICEKKFSM
notes: also called dec-1
B3: Siglec-1 (receptor, UniProt Q9BZZ2 20-1641, looked up)
chain: SWGVSSPQDVQGVKGSCLLIPCIFSFPADVEVPDGITAIWYYDYSGQRQVVSHSADPKLVEARFRGRTEFMGNPEHRVCNLLLKDLQPEDSGSYNFRFEISEVNRWSDVKGTLVTVTEEPRVPTIASPVELLEGTEVDFNCSTPYVCLQEQVRLQWQGQDPARSVTFNSQKFEPTGVGHLETLHMAMSWQDHGRILRCQLSVANHRAQSEIHLQVKYAPKGVKILLSPSGRNILPGELVTLTCQVNSSYPAVSSIKWLKDGVRLQTKTGVLHLPQAAWSDAGVYTCQAENGVGSLVSPPISLHIFMAEVQVSPAGPILENQTVTLVCNTPNEAPSDLRYSWYKNHVLLEDAHSHTLRLHLATRADTGFYFCEVQNVHGSERSGPVSVVVNHPPLTPVLTAFLETQAGLVGILHCSVVSEPLATLVLSHGGHILASTSGDSDHSPRFSGTSGPNSLRLEIRDLEETDSGEYKCSATNSLGNATSTLDFHANAARLLISPAAEVVEGQAVTLSCRSGLSPTPDARFSWYLNGALLHEGPGSSLLLPAASSTDAGSYHCRARDGHSASGPSSPAVLTVLYPPRQPTFTTRLDLDAAGAGAGRRGLLLCRVDSDPPARLQLLHKDRVVATSLPSGGGCSTCGGCSPRMKVTKAPNLLRVEIHNPLLEEEGLYLCEASNALGNASTSATFNGQATVLAIAPSHTLQEGTEANLTCNVSREAAGSPANFSWFRNGVLWAQGPLETVTLLPVARTDAALYACRILTEAGAQLSTPVLLSVLYPPDRPKLSALLDMGQGHMALFICTVDSRPLALLALFHGEHLLATSLGPQVPSHGRFQAKAEANSLKLEVRELGLGDSGSYRCEATNVLGSSNTSLFFQVRGAWVQVSPSPELQEGQAVVLSCQVHTGVPEGTSYRWYRDGQPLQESTSATLRFAAITLTQAGAYHCQAQAPGSATTSLAAPISLHVSYAPRHVTLTTLMDTGPGRLGLLLCRVDSDPPAQLRLLHGDRLVASTLQGVGGPEGSSPRLHVAVAPNTLRLEIHGAMLEDEGVYICEASNTLGQASASADFDAQAVNVQVWPGATVREGQLVNLTCLVWTTHPAQLTYTWYQDGQQRLDAHSIPLPNVTVRDATSYRCGVGPPGRAPRLSRPITLDVLYAPRNLRLTYLLESHGGQLALVLCTVDSRPPAQLALSHAGRLLASSTAASVPNTLRLELRGPQPRDEGFYSCSARSPLGQANTSLELRLEGVRVILAPEAAVPEGAPITVTCADPAAHAPTLYTWYHNGRWLQEGPAASLSFLVATRAHAGAYSCQAQDAQGTRSSRPAALQVLYAPQDAVLSSFRDSRARSMAVIQCTVDSEPPAELALSHDGKVLATSSGVHSLASGTGHVQVARNALRLQVQDVPAGDDTYVCTAQNLLGSISTIGRLQVEGARVVAEPGLDVPEGAALNLSCRLLGGPGPVGNSTFAWFWNDRRLHAEPVPTLAFTHVARAQAGMYHCLAELPTGAAASAPVMLRVLYPPKTPTMMVFVEPEGGLRGILDCRVDSEPLASLTLHLGSRLVASSQPQGAPAEPHIHVLASPNALRVDIEALRPSDQGEYICSASNVLGSASTSTYFGVRALHRLHQFQQ
B4: CD23 (receptor, UniProt P06734 48-321, looked up)
chain: DTTQSLKQLEERAARNVSQVSKNLESHHGDQMAQKSQSTQISQELEELRAEQQRLKSQDLELSWNLNGLQADLSSFKSQELNERNEASDLLERLREEVTKLRMELQVSSGFVCNTCPEKWINFQRKCYYFGKGTKQWVHARYACDDMEGQLVSIHSPEEQDFLTKHASHTGSWIGLRNLDLKGEFIWVDGSHVDYSNWAPGEPTSRSQGEDCVMMRGSGRWNDAFCDRKLGAWVCDRLATCTPPASEGSAESMGPDSRPDPDGRLPTPSAPLHS
B5: Siglec-4 (receptor, UniProt P20916 20-516, looked up)
chain: GHWGAWMPSSISAFEGTCVSIPCRFDFPDELRPAVVHGVWYFNSPYPKNYPPVVFKSRTQVVHESFQGRSRLLGDLGLRNCTLLLSNVSPELGGKYYFRGDLGGYNQYTFSEHSVLDIVNTPNIVVPPEVVAGTEVEVSCMVPDNCPELRPELSWLGHEGLGEPAVLGRLREDEGTWVQVSLLHFVPTREANGHRLGCQASFPNTTLQFEGYASMDVKYPPVIVEMNSSVEAIEGSHVSLLCGADSNPPPLLTWMRDGTVLREAVAESLLLELEEVTPAEDGVYACLAENAYGQDNRTVGLSVMYAPWKPTVNGTMVAVEGETVSILCSTQSNPDPILTIFKEKQILSTVIYESELQLELPAVSPEDDGEYWCVAENQYGQRATAFNLSVEFAPVLLLESHCAAARDTVQCLCVVKSNPEPSVAFELPSRNVTVNESEREFVYSERSGLVLTSILTLRGQAQAPPRVICTARNLYGAKSLELPFQGAHRLMWAKIGP
notes: also called MAG
B6: clec-4a (receptor, UniProt Q9UMR7 70-237, looked up)
chain: QKYSQLLEKKTTKELVHTTLECVKKNMPVEETAWSCCPKNWKSFSSNCYFISTESASWQDSEKDCARMEAHLLVINTQEEQDFIFQNLQEESAYFVGLSDPEGQRHWQWVDQTPYNESSTFWHPREPSDPNERCVVLNFRKSPKRWGWNDVNCLGPQRSVCEMMKIHL
notes: also called DCIR
B7: tetrameric human DC-SIGN (receptor, UniProt Q9NNX6 66-404, looked up)
chain: SISQEQSRQDAIYQNLTQLKAAVGELSEKSKLQEIYQELTQLKAAVGELPEKSKLQEIYQELTRLKAAVGELPEKSKLQEIYQELTWLKAAVGELPEKSKMQEIYQELTRLKAAVGELPEKSKQQEIYQELTRLKAAVGELPEKSKQQEIYQELTRLKAAVGELPEKSKQQEIYQELTQLKAAVERLCHPCPWEWTFFQGNCYFMSNSQRNWHDSITACKEVGAQLVVIKSAEEQNFLQLQSSRSNRFTWMGLSDLNQEGTWQWVDGSPLLPSFKQYWNRGEPNNVGEEDCAEFSGNGWNDDKCNLAKFWICKKSAASCSRDEEQFLSPAPATPNPPPA
B8: clec-4d (receptor, UniProt Q8WXI8 39-215, looked up)
chain: CLVTHHNFSRCKRGTGVHKLEHHAKLKCIKEKSELKSAEGSTWNCCPIDWRAFQSNCYFPLTDNKTWAESERNCSGMGAHLMTISTEAEQNFIIQFLDRRLSYFLGLRDENAKGQWRWVDQTPFNPRRVFWHKNEPDNSQGENCVVLVYNQDKWAWNDVPCNFEASRICKIPGTTLN
B9: MMR (receptor, UniProt P22897 19-1383, looked up)
chain: LLDTRQFLIYNEDHKRCVDAVSPSAVQTAACNQDAESQKFRWVSESQIMSVAFKLCLGVPSKTDWVAITLYACDSKSEFQKWECKNDTLLGIKGEDLFFNYGNRQEKNIMLYKGSGLWSRWKIYGTTDNLCSRGYEAMYTLLGNANGATCAFPFKFENKWYADCTSAGRSDGWLWCGTTTDYDTDKLFGYCPLKFEGSESLWNKDPLTSVSYQINSKSALTWHQARKSCQQQNAELLSITEIHEQTYLTGLTSSLTSGLWIGLNSLSFNSGWQWSDRSPFRYLNWLPGSPSAEPGKSCVSLNPGKNAKWENLECVQKLGYICKKGNTTLNSFVIPSESDVPTHCPSQWWPYAGHCYKIHRDEKKIQRDALTTCRKEGGDLTSIHTIEELDFIISQLGYEPNDELWIGLNDIKIQMYFEWSDGTPVTFTKWLRGEPSHENNRQEDCVVMKGKDGYWADRGCEWPLGYICKMKSRSQGPEIVEVEKGCRKGWKKHHFYCYMIGHTLSTFAEANQTCNNENAYLTTIEDRYEQAFLTSFVGLRPEKYFWTGLSDIQTKGTFQWTIEEEVRFTHWNSDMPGRKPGCVAMRTGIAGGLWDVLKCDEKAKFVCKHWAEGVTHPPKPTTTPEPKCPEDWGASSRTSLCFKLYAKGKHEKKTWFESRDFCRALGGDLASINNKEEQQTIWRLITASGSYHKLFWLGLTYGSPSEGFTWSDGSPVSYENWAYGEPNNYQNVEYCGELKGDPTMSWNDINCEHLNNWICQIQKGQTPKPEPTPAPQDNPPVTEDGWVIYKDYQYYFSKEKETMDNARAFCKRNFGDLVSIQSESEKKFLWKYVNRNDAQSAYFIGLLISLDKKFAWMDGSKVDYVSWATGEPNFANEDENCVTMYSNSGFWNDINCGYPNAFICQRHNSSINATTVMPTMPSVPSGCKEGWNFYSNKCFKIFGFMEEERKNWQEARKACIGFGGNLVSIQNEKEQAFLTYHMKDSTFSAWTGLNDVNSEHTFLWTDGRGVHYTNWGKGYPGGRRSSLSYEDADCVVIIGGASNEAGKWMDDTCDSKRGYICQTRSDPSLTNPPATIQTDGFVKYGKSSYSLMRQKFQWHEAETYCKLHNSLIASILDPYSNAFAWLQMETSNERVWIALNSNLTDNQYTWTDKWRVRYTNWAADEPKLKSACVYLDLDGYWKTAHCNESFYFLCKRSDEIPATEPPQLPGRCPESDHTAWIPFHGHCYYIESSYTRNWGQASLECLRMGSSLVSIESAAESSFLSYRVEPLKSKTNFWIGLFRNVEGTWLWINNSPVSFVNWNTGDPSGERNDCVALHASSGFWSNIHCSSYKGYICKRPKIIDAKPTHELLTTKADTRKMDPSK
B10: dectin-2 (receptor, UniProt Q6EIG7 46-209, looked up)
chain: TYGETGKRLSELHSYHSSLTCFSEGTKVPAWGCCPASWKSFGSSCYFISSEEKVWSKSEQNCVEMGAHLVVFNTEAEQNFIVQQLNESFSYFLGLSDPQGNNNWQWIDKTPYEKNVRFWHLGEPNHSAEQCASIVFWKPTGWGWNDVICETRRNSICEMNKIYL
notes: also called dec-2

These binders were tested against T1, IgG1-Fc (human, UniProt P01857 104-330 = IgG part) (assay: ELISA).
T1 construct: domain: Fc

Row | Binder | binding result
1 | B1 | no binding
2 | B2 | no binding
3 | B3 | no binding
4 | B4 | no binding
5 | B5 | no binding
6 | B6 | no binding
7 | B7 | no binding
8 | B8 | no binding
9 | B9 | no binding
10 | B10 | no binding

— patent US20210024615A1 (LIVERPOOL SCHOOL OF TROPICAL MEDICINE, published 2021)
